Test results from publication PMC8369199.

Biological target: cetuximab (human)
Assay: BLI; cetuximab (20 µg/ml) immobilised on Fab2G sensors; scFv hFc4 25 to 200 nM in kinetics buffer; 1:1 Langmuir model

Kd: 0.0205 µM
B1: humanized scFv hFc4 (scFv, V domains shown)
VH: EVQLLESGGGLVQPGGSLRLSCAASGFTFSSYAMNWVRQAPGKGLEFVAGINAAGSGANYAPAVKGRATISRDNSPNTVYLQMNSLRAEDTAVYYCAKGSGSCNHCGGGHGGMIDEWGQGTLVTVSS
VL: SYELMQPPSVSVSPGQTARITCSGGSSTYYGWYQQKPGQAPVTVIYWDDERPSGIPERFSGSSSGNTVTLTINGVQAEDEADYYCGGYDSSVGIFGGGTKLTVL
